Measured values from patent publication US20210388087A1.
Substitutions are numbered along the chain they refer to. Numbers in names are those of the source. Blank lines part the entries; values can stand above or below the binder they belong to.

Target: Human CD137 ECD (human)
Experiment: SPR, vs parent H183/L072

Chain of Human CD137 ECD (human) (chain, as listed by the source limits assumed): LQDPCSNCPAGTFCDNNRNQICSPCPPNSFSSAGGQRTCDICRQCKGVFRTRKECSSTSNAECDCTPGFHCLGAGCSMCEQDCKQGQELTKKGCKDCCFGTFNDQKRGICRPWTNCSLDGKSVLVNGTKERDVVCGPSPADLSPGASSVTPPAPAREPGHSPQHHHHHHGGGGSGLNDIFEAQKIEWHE

B1: dBBDu183H H93V / dBBDu072L (antibody, name in Kabat numbering, V domains shown)
VH: QVQLVESGGGLVQPGRSLRLSCAASGFTFSNAWMHWVRQAPGKGLEWVAQIKDKGNAYAAYYAPSVKGRFTISRDDSKNSIYLQMNSLKTEDTAVYYCVYVHYASASTVLPAFGVDAWGQGTTVTVSS
VL: DIVMTQSPLSLPVTPGEPASISCQASQELVHMNRNTYLHWYQQKPGQAPRLLIYKVSNRFPGVPDRFSGSGSGTDFTLKISRVEAEDVGVYYCAQGTSVPFTFGQGTKLEIK
fold change of affinity: 0 fold

B3: dBBDu183H A98V / dBBDu072L (antibody, name in Kabat numbering, V domains shown)
VH: B1 VH with V99H, A104V
VL: B1 VL
fold change of affinity: 0 fold

B4: dBBDu183H D101V / dBBDu072L (antibody, name in Kabat numbering, V domains shown)
VH: B1 VH with V99H, D116V
VL: B1 VL
fold change of affinity: 0 fold

B7: dBBDu183H A98G / dBBDu072L (antibody, name in Kabat numbering, V domains shown)
VH: B1 VH with V99H, A104G
VL: B1 VL
fold change of affinity: 0 fold

B10: dBBDu183H G100hV / dBBDu072L (antibody, name in Kabat numbering, V domains shown)
VH: B1 VH with V99H, G114V
VL: B1 VL
fold change of affinity: 0 fold

B11: dBBDu183H D101G / dBBDu072L (antibody, name in Kabat numbering, V domains shown)
VH: B1 VH with V99H, D116G
VL: B1 VL
fold change of affinity: 0 fold

B12: dBBDu183H F100gG / dBBDu072L (antibody, name in Kabat numbering, V domains shown)
VH: B1 VH with V99H, F113G
VL: B1 VL
fold change of affinity: 0 fold

B13: dBBDu183H A100fV / dBBDu072L (antibody, name in Kabat numbering, V domains shown)
VH: B1 VH with V99H, A112V
VL: B1 VL
fold change of affinity: 0 fold

B15: dBBDu183H A100V / dBBDu072L (antibody, name in Kabat numbering, V domains shown)
VH: B1 VH with V99H, A106V
VL: B1 VL
fold change of affinity: 0 fold

B17: dBBDu183H L100dG / dBBDu072L (antibody, name in Kabat numbering, V domains shown)
VH: B1 VH with V99H, L110G
VL: B1 VL
fold change of affinity: 0 fold

B22: dBBDu183H A102V / dBBDu072L (antibody, name in Kabat numbering, V domains shown)
VH: B1 VH with V99H, A117V
VL: B1 VL
fold change of affinity: 0 fold

B24: dBBDu183H P100eV / dBBDu072L (antibody, name in Kabat numbering, V domains shown)
VH: B1 VH with V99H, P111V
VL: B1 VL
fold change of affinity: 0 fold

B25: dBBDu183H H96N / dBBDu072L (antibody, name in Kabat numbering, V domains shown)
VH: B1 VH with V99H, H102N
VL: B1 VL
fold change of affinity: 0 fold

B27: dBBDu183H A98N / dBBDu072L (antibody, name in Kabat numbering, V domains shown)
VH: B1 VH with V99H, A104N
VL: B1 VL
fold change of affinity: 0 fold

B28: dBBDu183H H96G / dBBDu072L (antibody, name in Kabat numbering, V domains shown)
VH: B1 VH with V99H, H102G
VL: B1 VL
fold change of affinity: 0 fold

B31: dBBDu183H H93G / dBBDu072L (antibody, name in Kabat numbering, V domains shown)
VH: B1 VH with V99G
VL: B1 VL
fold change of affinity: 0 fold

Now from value to binder:

fold change of affinity: 0 fold
B2: dBBDu183H Y97G / dBBDu072L (antibody, name in Kabat numbering, V domains shown)
VH: B1 VH with V99H, Y103G
VL: B1 VL

fold change of affinity: 0 fold
B5: dBBDu183H S100aN / dBBDu072L (antibody, name in Kabat numbering, V domains shown)
VH: B1 VH with V99H, S107N
VL: B1 VL

fold change of affinity: 0 fold
B6: dBBDu183H S100aG / dBBDu072L (antibody, name in Kabat numbering, V domains shown)
VH: B1 VH with V99H, S107G
VL: B1 VL

fold change of affinity: 0 fold
B8: dBBDu183H V95G / dBBDu072L (antibody, name in Kabat numbering, V domains shown)
VH: B1 VH with V99H, V101G
VL: B1 VL

fold change of affinity: 0 fold
B9: dBBDu183H T100bG / dBBDu072L (antibody, name in Kabat numbering, V domains shown)
VH: B1 VH with V99H, T108G
VL: B1 VL

fold change of affinity: 0 fold
B14: dBBDu183H V100cG / dBBDu072L (antibody, name in Kabat numbering, V domains shown)
VH: B1 VH with V99H, V109G
VL: B1 VL

fold change of affinity: 0 fold
B16: dBBDu183H Y97V / dBBDu072L (antibody, name in Kabat numbering, V domains shown)
VH: B1 VH with V99H, Y103V
VL: B1 VL

fold change of affinity: 0 fold
B18: dBBDu183H S99V / dBBDu072L (antibody, name in Kabat numbering, V domains shown)
VH: B1 VH with V99H, S105V
VL: B1 VL

fold change of affinity: 0 fold
B19: dBBDu183H V100cN / dBBDu072L (antibody, name in Kabat numbering, V domains shown)
VH: B1 VH with V99H, V109N
VL: B1 VL

fold change of affinity: 0 fold
B20: dBBDu183H Y94G / dBBDu072L (antibody, name in Kabat numbering, V domains shown)
VH: B1 VH with V99H, Y100G
VL: B1 VL

fold change of affinity: 0 fold
B21: dBBDu183H S99N / dBBDu072L (antibody, name in Kabat numbering, V domains shown)
VH: B1 VH with V99H, S105N
VL: B1 VL

fold change of affinity: 0 fold
B23: dBBDu183H Y94V / dBBDu072L (antibody, name in Kabat numbering, V domains shown)
VH: B1 VH with V99H, Y100V
VL: B1 VL

fold change of affinity: 0 fold
B26: dBBDu183H T100bV / dBBDu072L (antibody, name in Kabat numbering, V domains shown)
VH: B1 VH with V99H, T108V
VL: B1 VL

fold change of affinity: 0 fold
B29: dBBDu183H V100iG / dBBDu072L (antibody, name in Kabat numbering, V domains shown)
VH: B1 VH with V99H, V115G
VL: B1 VL

fold change of affinity: 0 fold
B30: dBBDu183H S100aV / dBBDu072L (antibody, name in Kabat numbering, V domains shown)
VH: B1 VH with V99H, S107V
VL: B1 VL

fold change of affinity: 0 fold
B32: dBBDu183H Y97N / dBBDu072L (antibody, name in Kabat numbering, V domains shown)
VH: B1 VH with V99H, Y103N
VL: B1 VL

fold change of affinity: 0 fold
B33: dBBDu183H V95N / dBBDu072L (antibody, name in Kabat numbering, V domains shown)
VH: B1 VH with V99H, V101N
VL: B1 VL
